Assay results: US20240033354A1

Target: TcdB1 holotoxin (recombinant full-length TcdB1, VPI10463 strain, expressed in Bacillus megaterium) (Clostridium difficile, VPI10463 strain) (UniProt P18177)
Assay: cell-based or functional assay

## Fab fragment of bezlotoxumab
  cell rounding assay on HeLa cells, TcdB1 10 pM, 6 h: reduction of cell-rounding at 2 µM (% reduction of cell-rounding at 2 µM): 40
